± gives the standard deviation.
Assay: protein stability index of a GFP-peptide fusion (GPS, HEK-293T) (PSI 1-6); higher = more stable
[1] = treatment: DMSO, c terminus: a fixed tail appended
[2] = treatment: MLN4924 1 uM, 8 h, c terminus: a fixed tail appended
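Further: 24-mer peptide tiles fused after GFP, lentivirally expressed, FACS-sorted into six equal bins by GFP/DsRed ratio, decoded by Illumina sequencing, PSI is the read-weighted mean bin number.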

Row | Sequence | protein stability index [1] | protein stability index [2] | protein stability index (treatment: DMSO, c terminus: native) | protein stability index (treatment: MLN4924 1 uM, 8 h, c terminus: native)
1 | SRLQLLGATCMFVASKMKETIPLT [CCND1] | 2.69 ± 0.44 | 2.69 ± 0.66 |  | 
2 | ERLQAIAEKRKRQAEIENKRRQLE [PALM] | 3.74 ± 0.16 | 3.73 ± 0.27 |  | 
3 | FGGVLEYFMIQALNQKTSEKMKKR [RHOBTB3] | 2.14 ± 0.66 | 2.24 ± 0.25 |  | 
4 | DTRSGFWYVCRTQGVEGDHCVTSD [TRIM35] | 2.89 ± 0.31 | 3.08 ± 0.34 |  | 
5 | HEPLSKERVEAFSDGVYAIVATLL [TMEM175] | 2.15 ± 0.28 | 2.15 ± 0.11 |  | 
6 | NQWETPPEDLQTDLAKLVDQQNPT [ZNF449] | 5.36 ± 0.21 | 5.29 ± 0.26 |  | 
7 | LQFTILLSLIGVRVDVDTYLTSQL [NFE2L1] | 2.97 ± 0.47 | 3.13 ± 0.27 |  | 
8 | TGYLSTMVGLILGPFGINHGIELH [PCMTD1] | 3.29 ± 0.44 | 3.35 ± 0.25 |  | 
9 | DITVSVSTSFLPELSSVHPPHYFF [FBXO3] | 2.79 ± 0.48 | 2.63 ± 0.58 |  | 
10 | GRQPCGRFLRAYREGALRAALQRS [TRADD] | 2.56 ± 0.15 | 2.45 ± 0.4 |  | 
11 | PQAPAPATATDTFEAAPPAPAPAP [CEBPB] | 5.28 ± 0.51 | 5.38 ± 0.35 |  | 
12 | VAYRSLGRFEQLGKTAASWCLHVN [FSD1] | 2.6 ± 0.6 | 2.2 ± 0.36 |  | 
13 | GDPEEPLTGFSWRGGSDPETTGIQ [ATL3] | 5.13 ± 0.22 | 5.17 ± 0.12 |  | 
14 | RAGGWVSGEEFYMLTRRVLQLETV [PKD2L1] | 1.98 ± 0.14 | 2.5 ± 0.35 |  | 
15 | DSTWLLLRRIRAESGTKGLFAGFL [SLC25A39] | 2.63 ± 0.67 | 2.58 ± 0.53 |  | 
16 | NTNVLSRDLIPPHVNFSHLTTKDY [SLC6A17] | 3.49 ± 0.37 | 3.87 ± 0.12 |  | 
17 | WEISDDYPSLQAMGWFNNEVGSMK [CRYBA1] | 3.19 ± 0.24 | 3.42 ± 0.38 |  | 
18 | HNAHQLAAWCLHHICTNYNSVCSK [RHOBTB1] | 2.85 ± 0.55 | 2.79 ± 0.59 |  | 
19 | CEMEQQSQEYQILLDVKTRLEQEI [KRT16] | 4.1 ± 0.39 | 4.11 ± 0.37 |  | 
20 | LLLYRIRKDVGCNRFEVTLEKSNK [VPS39] | 2.21 ± 0.35 | 2.14 ± 0.3 |  | 
21 | KPVGRQACDLQPCPTEPPDDSCQD [ADAMTSL2] | 5.46 ± 0.34 | 5.76 ± 0.075 |  | 
22 | PQPHRNRAGLDLPTIDTGYDSQPQ [TRAF3IP2] | 4.58 ± 0.2 | 4.76 ± 0.19 |  | 
23 | DALGMDPMMEHEMGGHHPGADYPV [CTNNB1] | 4.51 ± 0.36 | 4.55 ± 0.16 |  | 

Row | Sequence | protein stability index [1] | protein stability index [2] | protein stability index (treatment: DMSO, c terminus: native) | protein stability index (treatment: MLN4924 1 uM, 8 h, c terminus: native)
24 | RTSPSCAFRSDDTKGHPRAVSQPF [CDC14A] | 3.57 ± 0.22 | 3.62 ± 0.37 |  | 
25 | LSIQVEEERRAREWLLDAPELPEG [ZMAT5] | 4.71 ± 0.34 | 5.06 ± 0.41 |  | 
26 | DKYVGVSSDSVGGFRYSERYDPEP [CLINT1] | 4.22 ± 0.23 | 4.27 ± 0.35 |  | 
27 | GKWQQQGDLQDTKENREEARFQDK [CHGB] | 5.44 ± 0.36 | 5.33 ± 0.16 |  | 
28 | DRDPNSLLISCAVSYRGAWWYRNC [TNXB] | 2.83 ± 0.24 | 2.77 ± 0.98 |  | 
29 | TCRPPSSSESSSDSDNSGGGGGGG [ANKRD17] | 5.44 ± 0.24 | 5.43 ± 0.26 |  | 
30 | KSQIMSLSHSPQEDWVLLGMANGQ [TLE6] | 3.15 ± 0.2 | 3.12 ± 0.17 |  | 
31 | GQRQPPPSEPTQGPEIVPRGAGP [DNAJC4] |  |  | 5.28 ± 0.51 | 5.49 ± 0.2
32 | MWGQSLLPPVSTSFTTGGLRIPFP [TNXB] | 2.3 ± 0.41 | 2.42 ± 0.16 |  | 
33 | SLSSTATVLLVLEDEDPEEMPKSS [PCDHGC5] | 4.24 ± 0.12 | 4.08 ± 0.32 |  | 
34 | LHARLRELLCELGRPSMVWLSANP [PRAME] | 2.65 ± 0.57 | 2.39 ± 0.42 |  | 
35 | ENNYYWSASECMQDFNTMFTNCYI [BRD3] | 2.28 ± 0.67 | 2.49 ± 0.44 |  | 
36 | HYRELLDSLPMDAYTHGCILHPEL [GDAP1] | 2.36 ± 0.2 | 2.43 ± 0.034 |  | 
37 | LEAGASAASTAAALENLQVEASCS [TRIM39] | 5.36 ± 0.2 | 5.3 ± 0.37 |  | 
38 | LLEQSLEEFAQAESKDQGKTLALA [ALDH8A1] | 4.68 ± 0.33 | 4.68 ± 0.14 |  | 
39 | EGSLWAVGTESQGRDWRHLPTITS [PXN] | 3.23 ± 0.16 | 3.34 ± 0.16 |  | 
40 | RYNRKYLMCGGIAFWSLVTLGSSF [SPNS1] | 2.68 ± 0.88 | 2.77 ± 0.96 |  | 
41 | FGKKEKGRLIQLSRDGATGHVLLT [PPFIA4] | 2.71 ± 0.36 | 2.78 ± 0.2 |  | 
42 | IKLLQSSGADFHKKDKCGRTPLHY [ANKRD44] | 2.42 ± 0.2 | 2.6 ± 0.38 |  | 
43 | SSHEVKALGAMWKLHKSQLSQALN [TRIM9] | 2.7 ± 0.41 | 2.58 ± 0.27 |  | 
44 | RRLLSYCKGRDHGVLDALHVLEGL [ZSWIM9] | 2.03 ± 0.21 | 2.16 ± 0.3 |  | 
45 | MLQIVVGVRDSGSPPLHANTSLHV [PCDHGC5] | 2.6 ± 0.47 | 2.91 ± 0.72 |  | 
46 | GGTLAEFIQKRCNSLLEEETILHF [NEK8] | 1.97 ± 0.24 | 1.99 ± 0.43 |  | 

Row | Sequence | protein stability index [1] | protein stability index [2] | protein stability index (treatment: DMSO, c terminus: native) | protein stability index (treatment: MLN4924 1 uM, 8 h, c terminus: native)
47 | LSQLRVLCCEWLRPEKHTKEQILE [ZNF232] | 2.37 ± 0.35 | 2.2 ± 0.22 |  | 
48 | FLHLRTHTEERPYECNHCGKGFRH [ZNF8] | 2.79 ± 0.34 | 2.97 ± 0.36 |  | 
49 | NGCRSGEIFAIDLRCGNQGKGWKA [DCAF4] | 2.31 ± 0.35 | 2.2 ± 0.29 |  | 
50 | TFICYVASSASAFLTAPLLEFLLA [CMTM3] | 3.36 ± 0.35 | 2.98 ± 0.39 |  | 
51 | SKILSSKSKAYTVVGTPCYISPEL [NEK8] | 2.82 ± 0.12 | 2.88 ± 0.37 |  | 
52 | WYFWGETFQNSVFVATFLRYAVVL [SCD] | 3.37 ± 0.33 | 3.36 ± 0.85 |  | 
53 | LRTLDKKTFYKTADISQMLVCTAD [TAF7L] | 2.61 ± 0.32 | 2.65 ± 0.41 |  | 
54 | LPPALVPAGGLAPGGGRGALLDQI [WAS] | 3.69 ± 0.12 | 3.71 ± 0.25 |  | 
55 | KCKPSLPAEAEGAAQELENQMKER [TMEM120A] | 5.42 ± 0.19 | 5.49 ± 0.2 |  | 
56 | VPLWGQLLLFLVFVIVLFFIYHFM [EMD] | 2.41 ± 0.17 | 2.17 ± 0.47 |  | 
57 | SIMSTGIVQGSSGAQGSGGGSTSA [CARM1] | 4.85 ± 0.24 | 5.12 ± 1 |  | 
58 | SKHLKEMYQELMEMCHKPDVELLQ [TRIM43] | 2.71 ± 0.26 | 2.7 ± 0.51 |  | 
59 | FTGKAEMGGPFSYVYFFCTVPEIL [TMEM106C] | 2.72 ± 0.59 | 2.16 ± 0.87 |  | 
60 | VKNVVSGGFPIIRDQIFRYVHDPE [FBXO3] | 2.53 ± 0.31 | 2.63 ± 0.38 |  | 
61 | RQLYAVNRRLRALEEQGATWRHRE [FATE1] | 3.52 ± 0.3 | 3.56 ± 0.15 |  | 
62 | LKDIFMFITRQLKGLEDTKSPQFN [PDS5B] | 2.11 ± 0.058 | 2.54 ± 0.31 |  | 
63 | VDDAYVRRMAAEATEWQKAGAPPP [SRPK2] | 4.52 ± 0.26 | 4.63 ± 0.16 |  | 
64 | GQRGNTESKTDGDDTETVPSEQSH [TCF25] | 5.58 ± 0.21 | 5.54 ± 0.23 |  | 
65 | PPVSQSRSLFSSVPSKPPMSLEPQ [ANKRD40] | 4.53 ± 0.11 | 4.68 ± 0.4 |  | 
66 | GSIPGFLISSGMSSHKQGHTSSEY [TAF7L] | 3.25 ± 0.23 | 3.29 ± 0.29 |  | 
67 | DKFVIVDCRYPYEYEGGHIKTAVN [CDC25B] | 2.48 ± 0.28 | 2.21 ± 0.23 |  | 
68 | LQLLQSRTSRKFLACRLTPDMETK [INTS3] | 2.69 ± 0.18 | 2.68 ± 0.2 |  | 
69 | IVTTVTTVQSRPRIDGKLDSPSRS [C2CD2L] | 3.4 ± 0.19 | 3.49 ± 0.27 |  | 

Row | Sequence | protein stability index [1] | protein stability index [2] | protein stability index (treatment: DMSO, c terminus: native) | protein stability index (treatment: MLN4924 1 uM, 8 h, c terminus: native)
70 | NYYRTWNVVVHDWLYYYAYKDFLW [SOAT1] | 3.73 ± 0.5 | 2.94 ± 0.34 |  | 
71 | RQLEIMGKEVSGDQIEDMFEQGKW [STX11] | 3.73 ± 0.13 | 3.56 ± 0.2 |  | 
72 | ISSIKEKYPSHSFIGEESVAAGEK [IMPA1] | 4.8 ± 0.13 | 4.81 ± 0.23 |  | 
73 | RSSSESKLPSSGSGKRLSGVSSVD [RIPK4] | 5.03 ± 0.19 | 5.07 ± 0.26 |  | 
74 | SDDHIRVIVQLHKLRHLDISRDRL [ZER1] | 2.38 ± 0.18 | 2.53 ± 0.11 |  | 
75 | RYEEANNNQYSEGVQREAQRIALR [KMT2E] | 4.3 ± 0.25 | 4.59 ± 0.2 |  | 
76 | MYSVEITVEKDKVTGETRVLSSTT [PALM] | 2.93 ± 0.21 | 3.19 ± 0.16 |  | 
77 | LKNKKGAKQQKFIKAVTHQVKFGQ [ZC3H15] | 3.14 ± 0.57 | 3.25 ± 0.39 |  | 
78 | LRSSDLYRHQRLHTGERPYECTVC [ZNF449] | 3.05 ± 0.17 | 3.17 ± 0.29 |  | 
79 | GYELGIISGALLQIKTLLALSCHE [SLC2A12] | 3.61 ± 0.26 | 3.71 ± 0.1 |  | 
80 | SNSLSSAEPLKEDKPVTGPRNKTE [ATF6] | 5.67 ± 0.1 | 5.59 ± 0.3 |  | 
81 | SMNRVKNISDADVHNAMDNYECNL [FEM1B] | 4.18 ± 0.29 | 4.3 ± 0.29 |  | 
82 | MGGAVSAGEDNDDLIDNLKEAQYI [PCMTD1] | 4.82 ± 0.086 | 4.64 ± 0.17 |  | 
83 | GSRMMAVAALVVNFSQPVAGRPSL [NLN] | 3.1 ± 0.68 | 2.56 ± 1.2 |  | 
84 | PSHHPTDPVELRRLNFQTPGMASH [PTPRD] | 3.79 ± 0.13 | 3.94 ± 0.34 |  | 
85 | NELVKCIEELCQKREELCRQIQEE [SSNA1] | 3.62 ± 0.33 | 3.76 ± 0.26 |  | 
86 | MEPAVSEPMRDQVARTHLTEDTPK [NSDHL] | 5.57 ± 0.16 | 5.51 ± 0.22 |  | 
87 | WEQKVLVIVMTTRFEEGGRRKCGQ [PTPN9] | 2.28 ± 0.2 | 2.28 ± 0.34 |  | 
88 | NKKRGWRRLAQEPLGLEVDQFLED [NOP53] | 4.45 ± 0.35 | 4.34 ± 0.18 |  | 
89 | LLSCGKILTGCKNMLFQQNKDGIG [ACSBG2] | 2.13 ± 0.42 | 2.23 ± 0.17 |  | 

From the supplement of paper PMC10567573
